The target in data set [1] is T1, IDH1 (UniProt O75874 1-414). As to the kind of experiment: EMSA. Background: In EMSA bound probe runs differently from free probe, usually more slowly.
For data set [2], the target named is T1, IDH1. Description: EMSA. The source holds these as a separate data set.

For orientation: Kd means a measure of binding affinity in units of concentration. Lower therefore signals higher affinity.

T1 sequence (O75874 whole entry): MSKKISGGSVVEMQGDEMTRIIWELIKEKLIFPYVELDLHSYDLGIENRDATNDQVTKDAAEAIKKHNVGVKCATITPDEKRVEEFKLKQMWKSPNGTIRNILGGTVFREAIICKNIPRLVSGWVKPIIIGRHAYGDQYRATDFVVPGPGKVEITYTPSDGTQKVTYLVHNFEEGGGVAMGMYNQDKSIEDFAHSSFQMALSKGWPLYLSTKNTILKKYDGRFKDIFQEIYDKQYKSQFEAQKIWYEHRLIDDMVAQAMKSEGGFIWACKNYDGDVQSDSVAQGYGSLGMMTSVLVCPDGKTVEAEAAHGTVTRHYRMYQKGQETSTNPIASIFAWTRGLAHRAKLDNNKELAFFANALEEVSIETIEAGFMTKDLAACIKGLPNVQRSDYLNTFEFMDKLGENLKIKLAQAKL

B1: AU-rich ssDNA (ssDNA)
DNA: GGATCCATTTATTTATTTATTTAAGCTTGG
Consider B1, for which the binding result with IDH1 [1] is on record as “no binding”.

B2: AU-rich dsRNA (dsRNA)
RNA 1: GGAUCCAUUUAUUUAUUUAUUUAAGCUUGG
RNA 2: CCUAGGUUAAAUAAAUAAAUAAAUCGAUCC
Regarding B2, the binding result with IDH1 [1] was “no binding”.

B3: AU-rich ssRNA (ssRNA)
RNA: B2 RNA 1
On to B3, for which binding with IDH1 [2] was put at a Kd of 680 ± 70 nM.

B4: AU-rich DNA/RNA hybrid (DNA:RNA)
RNA: B2 RNA 1
DNA: CCTAGGTTAAATAAATAAATAAATCGATCC
For the molecule B4, the binding result in the data set with IDH1 [1] is listed as “no binding”.

B5: AU-rich dsDNA (dsDNA)
DNA 1: B1 DNA
DNA 2: B4 DNA
Regarding B5, the binding result with IDH1 [1] is reported as “no binding”.

The values above are taken from article PMC6412114.
